Here are results for one molecule from patent US20080242590A1, “New Method 706” (ASTRAZENECA AB, priority 2007, published 2008).

In assay [1] the target is amyloid β peptide 1-42 (human) (human). As to the kind of experiment: cell-based or functional assay.
Assay [2] has as its target amyloid β peptide 1-40 (human) (human). In words: cell-based or functional assay.

Sequence of amyloid β peptide 1-42 (human) (human) (peptide, as listed by the source): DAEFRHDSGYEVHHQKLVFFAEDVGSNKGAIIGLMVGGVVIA
Sequence of amyloid β peptide 1-40 (human) (human) (peptide, as listed by the source): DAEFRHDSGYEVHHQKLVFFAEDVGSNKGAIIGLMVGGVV

B1: Fc-Neprilysin fusion protein (human IgG2 hinge and Fc domain fused N-terminally to the extracellular domain of human Neprilysin) (Fc fusion)
chain: ERKCCVECPPCPAPPVAGPSVFLFPPKPKDTLMISRTPEVTCVVVDVSHEDPEVQFNWYVDGVEVHNAKTKPREEQFNSTFRVVSVLTVVHQDWLNGKEYKCKVSNKGLPAPIEKTISKTKGQPREPQVYTLPPSREEMTKNQVSLTCLVKGFYPSDIAVEWESNGQPENNYKTTPPMLDSDGSFFLYSKLTVDKSRWQQGNVFSCSVMHEALHNHYTQKSLSLSPGKYDDGICKSSDCIKSAARLIQNMDATTEPCTDFFKYACGGWLKRNVIPETSSRYGNFDILRDELEVVLKDVLQEPKTEDIVAVQKAKALYRSCINESAIDSRGGEPLLKLLPDIYGWPVATENWEQKYGASWTAEKAIAQLNSKYGKKVLINLFVGTDDKNSVNHVIHIDQPRLGLPSRDYYECTGIYKEACTAYVDFMISVARLIRQEERLPIDENQLALEMNKVMELEKEIANATAKPEDRNDPMLLYNKMTLAQIQNNFSLEINGKPFSWLNFTNEIMSTVNISITNEEDVVVYAPEYLTKLKPILTKYSARDLQNLMSWRFIMDLVSSLSRTYKESRNAFRKALYGTTSETATWRRCANYVNGNMENAVGRLYVEAAFAGESKHVVEDLIAQIREVFIQTLDDLTWMDAETKKRAEEKALAIKERIGYPDDIVSNDNKLNNEYLELNYKEDEYFENIIQNLKFSQSKQLKKLREKVDKDEWISGAAVVNAFYSSGRNQIVFPAGILQPPFFSAQQSNSLNYGGIGMVIGHEITHGFDDNGRNFNKDGDLVDWWTQQSASNFKEQSQCMVYQYGNFSWDLAGGQHLNGINTLGENIADNGGLGQAYRAYQNYIKKNGEEKLLPGLDLNHKQLFFLNFAQVWCGTYRPEYAVNSIKTDVHSPGNFRIIGTLQNSAEFSEAFHCRKNSYMNPEKKCRVW
In assay [1], B1 had a % degradation of Aβ 1-42 in APPswe-tg mouse plasma at highest concentration (100 µg/ml), 1 h room temperature, ELISA of 34%; a % degradation of Aβ 1-42 in human plasma at highest concentration (100 µg/ml), 1 h room temperature, ELISA of 28%; an EC50 of degradation of Aβ 1-42 in APPswe-tg mouse plasma of 1.3 µM; an EC50 of degradation of Aβ 1-42 in human plasma of 0.25 µM. For the same molecule, in assay [2], the % degradation of amyloid β 1-40 in APPswe-tg mouse plasma at highest concentration (100 µg/ml), 1 h room temperature, ELISA worked out at 71%; the % degradation of amyloid β 1-40 in human plasma at highest concentration (100 µg/ml), 1 h room temperature, ELISA was determined as 66%; the Amyloid β 1-40 peptide degradation (remaining peptide by Gyrolab immunoassay), batch 1, 2.4 µg/ml, 300 nM peptide, 2.5 h at 37 °C in buffer is 50%; the Amyloid β 1-40 peptide degradation (remaining peptide by Gyrolab immunoassay), batch 2, 2.4 µg/ml, 300 nM peptide, 2.5 h at 37 °C in buffer was 42%. In assay [2], this molecule came in with an EC50 of degradation of Aβ 1-40 in APPswe-tg mouse plasma of 0.47 µM and an EC50 of degradation of Aβ 1-40 in human plasma of 0.58 µM.
